Sequences and labels used below:
B1: MBP-tagged h1NLS (MBP-h1NLS), wild type (peptide, UniProt Q03707 171-221, looked up)
chain: DTRKKRKDPDSDDWSESNSKENKIDNKHLNLLSSDSEIEQDYQKAKKRKTS
B2: MBP-h1NLS with Ala-mutation at position P2' (R176A) (peptide, UniProt Q03707 171-221, looked up)
chain: B1 chain with R6A
B3: MBP-h1NLS with Ala-mutations at positions P2' and P2 (R176A, K190A) (peptide, UniProt Q03707 171-221, looked up)
chain: B1 chain with R6A, K20A
B4: MBP-h1NLS with Ala-mutation at position P2 (K190A) (peptide, UniProt Q03707 171-221, looked up)
chain: B1 chain with K20A
B5: MBP-Nup2 (res. 1-51) (domain or fragment, S. cerevisiae, UniProt P32499 1-51, looked up)
chain: MAKRVADAQIQRETYDSNESDDDVTPSTKVASSAVMNRRKIAMPKRRMAFK

In general, Kd refers to the free concentration of one partner at which half of the binding sites on the other are occupied at equilibrium, for simple one-to-one binding. Read a high Kd as lower affinity.

Numbering of substitutions follows the chain as printed. In names and notes the source's numbering stands.

One test addresses T1, Kap60 lacking the IBB (ΔIBB-Kap60) (S. cerevisiae, UniProt Q02821 88-509).
T1 sequence: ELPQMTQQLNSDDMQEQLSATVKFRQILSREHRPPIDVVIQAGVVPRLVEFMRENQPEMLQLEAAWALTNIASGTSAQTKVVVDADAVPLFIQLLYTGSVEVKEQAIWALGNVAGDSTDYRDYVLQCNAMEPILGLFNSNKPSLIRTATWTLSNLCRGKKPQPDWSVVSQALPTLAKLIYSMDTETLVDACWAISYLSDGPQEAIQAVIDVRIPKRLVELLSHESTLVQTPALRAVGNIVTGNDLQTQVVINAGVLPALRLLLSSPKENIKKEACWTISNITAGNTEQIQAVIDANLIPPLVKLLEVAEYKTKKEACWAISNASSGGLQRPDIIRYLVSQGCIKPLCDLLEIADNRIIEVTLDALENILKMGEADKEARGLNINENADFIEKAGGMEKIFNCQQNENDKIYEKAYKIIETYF
Kind of test: ITC. Background: In ITC the heat of successive injections is recorded.
TNKRKREQISTDNEAKMQIQEEKSPKKKRKKRSSKANK (peptide, UniProt Q03281 100-137, looked up) [MBP-tagged h2NLS (MBP-h2NLS), wild type]: the affinity, expressed as Kd, was 27.3 ± 8 nM.

Regarding TNKAKREQISTDNEAKMQIQEEKSPKKKRKKRSSKANK (peptide, UniProt Q03281 100-137, looked up) [MBP-h2NLS with Ala-mutation at position P2' (R103A)], the Kd was 132 ± 27 nM.

TNKAKREQISTDNEAKMQIQEEKSPKAKRKKRSSKANK (peptide, UniProt Q03281 100-137, looked up) [MBP-h2NLS with Ala-mutations at positions P2' and P2 (R103A, K126A)] registered a Kd of 168 ± 32 nM.

TNKRKREQISTDNEAKMQIQEEKSPKAKRKKRSSKANK (peptide, UniProt Q03281 100-137, looked up) [MBP-h2NLS with Ala-mutation at position P2 (K126A)] gave a Kd of 106 ± 15 nM.

B1 gave a dissociation constant Kd of 30.5 ± 10 nM.

In turn, B2 had an equilibrium dissociation constant (Kd) of 123 ± 8.6 nM.

Consider B3, for which binding was characterised by a dissociation constant (Kd) of 140 ± 26 nM.

B4: the Kd is 68.6 ± 14 nM.

The target in a further test is Kap60 lacking the IBB (ΔIBB-Kap60) (S. cerevisiae) (UniProt Q02821). The test can be described thus: ITC.
In turn, “nucleoplasmin bipartite NLS (NP-NLS), control (peptide)” registered a Kd of 46 nM.

In a further test the target is T1, Kap60 lacking the IBB (ΔIBB-Kap60). The test can be described thus: pull-down.
Turning to B5, the “percent of the ΔIBB-Kap60:h2NLS complex dissociated at 10-fold excess of Nup2” value turned out to be 60%.

These data come from paper PMC4768490 (Structure (London, England : 1993), 2015).
